Results as given in US20030044858A1 (Genentech, published 2003).

B1: MaE 11 murine anti-human IgE monoclonal antibody (antibody)
heavy: DVQLQESGPGLVKPSQSLSLACSVTGYSITSGYSWNWIRQFPGNKLEWMGSITYDGSSNYNPSLKNRISVTRDTSQNQFFLKLNSATAEDTATYYCARGSHYFGHWHFAVWGAGTTVTVSSAKTTPPSVYPLAR
light: DIVLTQSPASLAVSLGQRATISCKASQSVDYDGDSYMNWYQQKPGQPPILLIYAASYLGSEIPARFSGSGSGTDFTLNIHPVEEEDAATFYCQQSHEDPYTFGAGTKLEIK
notes: murine IgG1; they may hold only the variable regions
B2: MaE 13 murine anti-human IgE monoclonal antibody (antibody)
heavy: DVQLQESGPGLVKPSQSLSLTCTVTGYTITSDNAWNWIRQFPGNKLEWMGYINHSGTTSYNPSLKSRISITRDTSKNQFFLQLNSVTTEDTATYYCAWVVAYAMDYWGQGTSVTVSSAKTTPPSVYPLAR
light: DIVMTQSQKFMSTSVGDRVSVTCKASQNVSSNVAWYQQKPGQSPKALIYSASYRYSGVPDRFTGSGSGTDFTLTISNVQSEDLAEYFCQQYYTYPLYTFGGGTKLEIKRADAAPTVSIFPPSTR
notes: murine IgG1; may hold only the variable regions

Key:
[1] = molecular target: FCEH-bound IgE (human IgE held on FcεRI) (human, UniProt P01854 1-546; P12319 26-257); assay: cell-based or functional assay
Sequence of FCEH-bound IgE (human IgE held on FcεRI) (P01854 whole entry, chain 1 of 2): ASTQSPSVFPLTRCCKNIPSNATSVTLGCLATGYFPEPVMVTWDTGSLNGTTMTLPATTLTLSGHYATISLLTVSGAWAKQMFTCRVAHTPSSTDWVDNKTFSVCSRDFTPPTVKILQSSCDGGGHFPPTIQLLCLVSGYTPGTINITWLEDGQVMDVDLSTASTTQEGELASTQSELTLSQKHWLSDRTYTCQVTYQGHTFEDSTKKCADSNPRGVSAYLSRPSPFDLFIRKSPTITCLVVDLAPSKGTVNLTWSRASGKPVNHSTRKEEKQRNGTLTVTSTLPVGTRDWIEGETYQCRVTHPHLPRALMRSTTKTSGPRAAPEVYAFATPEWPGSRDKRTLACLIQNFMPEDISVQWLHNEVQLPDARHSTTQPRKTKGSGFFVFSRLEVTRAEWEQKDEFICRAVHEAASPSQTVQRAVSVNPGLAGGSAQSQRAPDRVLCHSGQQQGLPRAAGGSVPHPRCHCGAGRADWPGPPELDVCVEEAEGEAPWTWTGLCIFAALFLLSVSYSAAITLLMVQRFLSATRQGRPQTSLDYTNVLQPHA
Sequence of FCEH-bound IgE (human IgE held on FcεRI) (P12319 26-257, chain 2 of 2): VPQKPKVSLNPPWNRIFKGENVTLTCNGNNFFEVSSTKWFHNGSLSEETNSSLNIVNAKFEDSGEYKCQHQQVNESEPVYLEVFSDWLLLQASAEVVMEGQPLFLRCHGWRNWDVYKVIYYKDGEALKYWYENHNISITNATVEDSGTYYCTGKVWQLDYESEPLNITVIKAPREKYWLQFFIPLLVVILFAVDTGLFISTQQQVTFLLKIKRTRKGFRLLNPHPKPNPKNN

[2] = molecular target: T1, human IgE (U266 IgE) (human, UniProt P01854 1-546); assay: ratio of 50% inhibition concentrations
T1 construct: mature; Purified from U266B1 cells or recombinant from 293 cells; the Scatchard assay used iodinated IgE of ND and PS allotypes; P01854 covers the constant region only; also called huIgE; U266 IgE standard
T1 sequence (P01854 whole entry): as the sequence (P01854 whole entry, chain 1 of 2) above
Description: (§1) A 96-well assay plate (Manufn Nunc.) was coated with 0.05 ml of the FcεRI alpha chain IgG1 chimeric receptor in 1 μg/ml coating buffer ([…] carbonate/bicarbonate, pH 9.6). Assay was done for 12 hours at 4-8° C. The wells were aspirated and 250 μl blocking buffer (PBS—1% BSA pH 7.2) was added and incubated for one hour at 4° C. […] The FcεRI-coated wells were washed three times with PBS-0.05% Tween20, and then 50 μl from the sample wells were transferred and incubated with agitation for 30 minutes at 25° C. 50 μl/well of streptavidin-HRP diluted 1:5000 in assay buffer was incubated for 15 minutes with agitation and then the plate was washed as before. 50 μl/well of Microwell peroxidase substrate (Kirkgaard & Parry Laboratories) was added and color was developed for 30 minutes. The reaction was stopped by adding an equal volume of 1 normal HCl and the adsorbance measured at 450 nm.

[3] = molecular target: T1, human IgE (U266 IgE); assay: 50% inhibition of IgE binding to FCEH (assay taken as that of Table 9)
Description: as §1

[4] = molecular target: T2, membrane IgE on U266 B1 cells (human, UniProt P01854 1-546); assay: FACS on U266 B1 cells (membrane IgE+)
T2 construct: whole, on cells; also called Membrane IgE on U266BL; mIgE
T2 sequence (P01854 whole entry): as the sequence (P01854 whole entry, chain 1 of 2) above
Description: c. […] Cells are added to 400 μl FACS buffer containing propidium iodide at 2 μg/ml to stain dead cells.

| Binder | PBL Histamine Release (EC50) [1] [µg/mL] | Var. X / IgL1H1 [2] [ratio] | Var. X / MaE11 [2] [ratio] | IC50 [3] [µg/mL] | EC50 [4] [µg/mL] |
| --- | --- | --- | --- | --- | --- |
| B1 | > 100 | 0.06 | 1 | 0.449 | 0.15 |
| B2 | > 10 |  |  |  | 1 |
